# From the nanobody polyreactivity screen of Harvey et al. (2022)
# Test: yeast display, Sf9 membrane polyspecificity reagent, FACS + sequencing; frameworks hold sequencing errors
# Procedure, shortened: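 In a synthetic yeast display library (Saccharomyces cerevisiae BJ5465), nanobody expression was induced with galactose for 36–48 hours. FACS gates were set low and high (top ~1%) using anti-HA fluorescence for expression and streptavidin fluorescence for binding of the Sf9 membrane reagent. Each polyreactivity label is drawn from the gate of origin.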
sequence,measurement,value
QVQLVESGGGLVQAGGSLRLSCAASGITFGYYAMGWSRQAPGKERELVAAINWRGGNTYYADSVKGRFTISRDNAKNTVYLQMNSLKPEDTAVYYCNALYKRYTDYDYWGQGSQVTVSS,polyreactivity (PSR sort gate),high polyreactivity
QVQLVESGGGLVQAGGSLRLSCAASGSTFYYNAMGWYRQAPGKERELVAVITLNGGRTSYADSVKGRFTISRDNAKITVYLQMNSLKPEDTAVYYCAADRYRGYGYWGQGTQVTVSS,polyreactivity (PSR sort gate),low polyreactivity
QVQLVESAGGLVQAGGSLRLSCAASGLIFAVYAKGLYRQAPGKEREFLAAITGTGSSTYYADSVKGRFTISRDNAKNTVYLQMNSLKPEDTAVYYCNAYVYDWIPYYHIDHDYWGQGTQVTVSS,polyreactivity (PSR sort gate),low polyreactivity
QVQLVESGGGLVQAGGSLRLSCAASGRIFSANAMGWYRQAPGKERELVAAITRGDNTYYADSVKGRFTISRDNAKNTVYLQMNSLKPEDTAVYYCATEGYQIQYEHDYWGQGTQLTVSS,polyreactivity (PSR sort gate),low polyreactivity
QVQLVESGGGLVQAGGSLRLSCAASGIIFRYNAMGWYRQAPGKERELVAVINWRSGGTYYADSVKGRFTISRDNAKNTVYLQMNSLKPDDTADYYCADRVGSWTQSFGYDYWGQGTQVTVSS,polyreactivity (PSR sort gate),high polyreactivity
QVQLVESGGGLVQAGGSLRLSCAASGSTFGLYVMGWYRQAPGKERELVAAISWSGGSTYYADSVKGRFTISRDTAKNTVYLQMNSLKPEDTAVYYCAKVFRTYRYPYGYWGQGTQVTVSS,polyreactivity (PSR sort gate),high polyreactivity
QVQLVESGGGLVQAGGSLRLSCAASGRIFRSYTMGWYRQAPGKERELVAAISKTGSRTYYADSVKGRFTISRDNAKNTVYLQMNSLKPEDTAVYYCAALFVHSYRDDYWGQGTQVTVSS,polyreactivity (PSR sort gate),high polyreactivity
QVQLVESGGGLVQAGGSLRLSCASSGIIFYTYAMGWYRQAPGKERELDAAITQTSAPTYYADSVKGRFTISRDNAKNTVYLQMNSLNPEDTAVYYCAAVPSYRVQGGRMYYWGQGTQVTVSS,polyreactivity (PSR sort gate),high polyreactivity
QVQLVESGGGLVQAGGSLRLSCAASVITYFVYAMGWYRQAPGKERELVAAITSGDSTSYADSVKGRFTISRDNAKNTVYLQMNSLKPEDTAVYYCAAEQVTIEDGVYFDFNSWGQGTQVTVSS,polyreactivity (PSR sort gate),low polyreactivity
QVQLVESGGGLVQAGGSLRISCAASGSIFRRYAMGWYSQAPGKERDLVATISSVTTTNYADSVKGRFTISRDNANNTVYLQMNSLKPEDTSVFYCAAVVYGQRRGPGQRKSYWGQGTQVTVSS,polyreactivity (PSR sort gate),high polyreactivity
QVQLVESGGGLVQAGGSLRLSCAASGSTFLDYAMGWYRQAPGNERELVAAISPDDSSTYYADSVKARFTISRDKAKNTVSLHMTSLKPEDTAVYYFAADDRDWVNYDYWGQGTQVTVSS,polyreactivity (PSR sort gate),low polyreactivity
QVQLVESGGGLVQAGGSLRLSCAASGITFNIYVMGWYRQAPGKERELVAAITDSGGTTYYADSVKGRFTISRDNAKNTVYLQMNSLKPEDTAVYYCAAEPFYSWWWWGDYWGQGTQVTVSS,polyreactivity (PSR sort gate),high polyreactivity
QVQLVESGGGLVQAGGSLRLRCAASGSTLYIYAMGWYRQAPGKERELVAAITSSTGSTYADSVKGRFTISRDNAKNTVYLQMNSLKPEDTAVYYCNAGGPLQPYDYWGQGTQVTVSS,polyreactivity (PSR sort gate),low polyreactivity
QVQLVESGGGLVQAGGSLRLSCAASGRTFGPYVMGWYRQAPGKERELVAAISFSGGSTYYADSVKGRFTISRDNAKNTVYLQMNSLKPEDTAVYYCAAPATRPYYTGYDYWGQGTQVTVSS,polyreactivity (PSR sort gate),high polyreactivity
QVQLVESGGGLVQAGGSLRLSCAASGSIFKRYAMGWYRQAPGKERELVASISSRGSSTNYADSVKGRFTISRDNAKNTVYLQMNSLKPEDTAVYYCAAEVYRGKYWSTYRGGDYWGQGTQVTVSS,polyreactivity (PSR sort gate),high polyreactivity
QVQLVESGGGLVQAGGSLRLSCAASGFIFTANAMGWYRQAPGKESELVANINRSGDSTYYADSVKGRFTISRDNAKNTVYLQMNSLKPEDTAVYYCNKDWHSQVFSAYNSYDYWGQGTQVTVSS,polyreactivity (PSR sort gate),low polyreactivity
QVQLVESGGGLVQAGGSLRLSCAASGGISTAYTMGWYRQEPGKERELVADITRSGGRTYYADSVKGRFTISRDTAKNNVYLQMNSLKPEDTAVYYCARTYYYRFNYWGQGTQVTVSS,polyreactivity (PSR sort gate),high polyreactivity
QVQLVESGGGLVQAGGSLRLSCAASGSTLGYNAMGWYRQATGKERELVAGISRNGGSTFYADSVKGRFTISRDYAKYTLYLQMNSLKPEDTAVYYCARYYTHSGGFRVRIYYYWGQATQVTVSS,polyreactivity (PSR sort gate),low polyreactivity
QVQLVESGGGLVQAGGSLRLSCAASGSTFPYVMGWYTPAPGKERELVAAISQRTGSTYYADSVKGRFTISRDNAKNSVYLQMNILKPEDTAVYYCAKPVYLSPSRYDYWGQGTQVTVSS,polyreactivity (PSR sort gate),high polyreactivity
QVQLVESGGGLVQAGGSLRLSCAASGFIFLYYAMGWYRPAPGKEGELVAAISRSGGRTYYADSVKGRFTISRDNAKNTVYLQMNSLKPEDTAGYYCAARSARTSSFPIFYYWGQGTQVTVSS,polyreactivity (PSR sort gate),high polyreactivity
QVQLVESGGGLVQAGGSLRVSCAASGFIFGLYAMGWYRQAPGKERELVATISWDGGSTYYADSVKGRFTISRDNAKNTVYLQMNSLKPEDTAVYYCAATYLYRSPYVPMDYWGQGSQVTVSS,polyreactivity (PSR sort gate),low polyreactivity
QDQLVESGGGLVHAGGSLLLSCAACRRLFSQYVMGWYRQAPGKERELVAAISSGGGRTYYADSVKGRFTISRDYAKNTVYLQLNSLKPEDTAVYYCATLRPSAYPQYDSWGQGTQVTVSS,polyreactivity (PSR sort gate),high polyreactivity
